Measurements reported in the supplement of paper PMC9112550, “Optimization of the antimicrobial peptide Bac7 by deep mutational scanning” (BMC Biology, 2022).
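Also: peptides expressed intracellularly from a pBAD plasmid library in pooled LB shake-flask culture, induced with 0.3% L-arabinose, DNA abundance read by NGS, three biological replicates, DESeq2 with apeglm shrinkage.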

These sequences were tested on Escherichia coli TOP10 (assay: shrunken log2 fold change of peptide-encoding DNA abundance (4.5 h post-induction vs induction); higher = less antimicrobial activity (less host growth inhibition)). Details: time post-induction: 4.5 h; library: site-saturation at positions 5, 18, 19, 20.
With RRIRSRPPRLPRPRPRPFLYPRP the “shrunken log2 fold change” value was -0.442. For RRIRSRPPRLPRPRPRPFMAPRP, the “shrunken log2 fold change” value was -0.497. For RRIRSRPPRLPRPRPRPFPFPRP, the “shrunken log2 fold change” value was -0.187. In the case of RRIRSRPPRLPRPRPRPFPRPRP, the “shrunken log2 fold change” value is reported as 0.356. RRIRSRPPRLPRPRPRPFQAPRP was tested, and the “shrunken log2 fold change” value was 0.0408. With RRIRSRPPRLPRPRPRPFRTPRP the “shrunken log2 fold change” value was -0.318. In the case of RRIRSRPPRLPRPRPRPFSVPRP, the “shrunken log2 fold change” value is reported as -0.416. With RRIRSRPPRLPRPRPRPFTCPRP the “shrunken log2 fold change” value was -0.0185. In the case of RRIRSRPPRLPRPRPRPFVMPRP, the “shrunken log2 fold change” value is reported as -0.0833. RRIRSRPPRLPRPRPRPFWGPRP was tested, and the “shrunken log2 fold change” value was 0.176. In the case of RRIRSRPPRLPRPRPRPFWVPRP, the “shrunken log2 fold change” value is reported as 0.106. In the case of RRIRSRPPRLPRPRPRPFYCPRP, the “shrunken log2 fold change” value is reported as -0.14. In the case of RRIRSRPPRLPRPRPRPFYFPRP, the “shrunken log2 fold change” value is reported as -0.55. In the case of RRIRSRPPRLPRPRPRPGAMPRP, the “shrunken log2 fold change” value is reported as 0.724. With RRIRSRPPRLPRPRPRPGCAPRP the “shrunken log2 fold change” value was 0.46. In the case of RRIRSRPPRLPRPRPRPGCRPRP, the “shrunken log2 fold change” value is reported as 0.293. In the case of RRIRSRPPRLPRPRPRPGDMPRP, the “shrunken log2 fold change” value is reported as 0.0129. With RRIRSRPPRLPRPRPRPGDNPRP the “shrunken log2 fold change” value was 0.0473. For RRIRSRPPRLPRPRPRPGEMPRP, the “shrunken log2 fold change” value was 0.336. In the case of RRIRSRPPRLPRPRPRPGFAPRP, the “shrunken log2 fold change” value is reported as 0.502. With RRIRSRPPRLPRPRPRPGFCPRP the “shrunken log2 fold change” value was 0.108. RRIRSRPPRLPRPRPRPGFEPRP was tested, and the “shrunken log2 fold change” value was 0.418. In the case of RRIRSRPPRLPRPRPRPGFHPRP, the “shrunken log2 fold change” value is reported as 0.0792. RRIRSRPPRLPRPRPRPGFKPRP was tested, and the “shrunken log2 fold change” value was 0.122. For RRIRSRPPRLPRPRPRPGGAPRP, the “shrunken log2 fold change” value was 0.574. In the case of RRIRSRPPRLPRPRPRPGHQPRP, the “shrunken log2 fold change” value is reported as -0.167. With RRIRSRPPRLPRPRPRPGHWPRP the “shrunken log2 fold change” value was 0.286. RRIRSRPPRLPRPRPRPGIEPRP was tested, and the “shrunken log2 fold change” value was 0.158. For RRIRSRPPRLPRPRPRPGISPRP, the “shrunken log2 fold change” value was -0.486. With RRIRSRPPRLPRPRPRPGKCPRP the “shrunken log2 fold change” value was 0.0216. In the case of RRIRSRPPRLPRPRPRPGLEPRP, the “shrunken log2 fold change” value is reported as 0.00456. For RRIRSRPPRLPRPRPRPGLNPRP, the “shrunken log2 fold change” value was -0.207. In the case of RRIRSRPPRLPRPRPRPGLYPRP, the “shrunken log2 fold change” value is reported as -0.106. With RRIRSRPPRLPRPRPRPGNNPRP the “shrunken log2 fold change” value was -0.354. RRIRSRPPRLPRPRPRPGQRPRP was tested, and the “shrunken log2 fold change” value was 0.0367. In the case of RRIRSRPPRLPRPRPRPGRYPRP, the “shrunken log2 fold change” value is reported as -0.344. With RRIRSRPPRLPRPRPRPGSAPRP the “shrunken log2 fold change” value was 0.231. With RRIRSRPPRLPRPRPRPGSEPRP the “shrunken log2 fold change” value was 0.593. In the case of RRIRSRPPRLPRPRPRPGTYPRP, the “shrunken log2 fold change” value is reported as -1.16. RRIRSRPPRLPRPRPRPGVCPRP was tested, and the “shrunken log2 fold change” value was 0.562. For RRIRSRPPRLPRPRPRPGVNPRP, the “shrunken log2 fold change” value was -0.398. RRIRSRPPRLPRPRPRPGWMPRP was tested, and the “shrunken log2 fold change” value was -0.0141. RRIRSRPPRLPRPRPRPGWVPRP was tested, and the “shrunken log2 fold change” value was 0.549. With RRIRSRPPRLPRPRPRPGYEPRP the “shrunken log2 fold change” value was -0.157. RRIRSRPPRLPRPRPRPGYGPRP was tested, and the “shrunken log2 fold change” value was -0.0163. RRIRSRPPRLPRPRPRPHALPRP was tested, and the “shrunken log2 fold change” value was 0.0303. With RRIRSRPPRLPRPRPRPHASPRP the “shrunken log2 fold change” value was 0.188. In the case of RRIRSRPPRLPRPRPRPHATPRP, the “shrunken log2 fold change” value is reported as 0.378. RRIRSRPPRLPRPRPRPHCFPRP was tested, and the “shrunken log2 fold change” value was 0.111. With RRIRSRPPRLPRPRPRPHCRPRP the “shrunken log2 fold change” value was -0.172. RRIRSRPPRLPRPRPRPHERPRP was tested, and the “shrunken log2 fold change” value was 7.23e-05. For RRIRSRPPRLPRPRPRPHEYPRP, the “shrunken log2 fold change” value was 0.00184. In the case of RRIRSRPPRLPRPRPRPHFDPRP, the “shrunken log2 fold change” value is reported as 0.0286. For RRIRSRPPRLPRPRPRPHFTPRP, the “shrunken log2 fold change” value was -0.256. RRIRSRPPRLPRPRPRPHGEPRP was tested, and the “shrunken log2 fold change” value was -0.0153. With RRIRSRPPRLPRPRPRPHKGPRP the “shrunken log2 fold change” value was -0.22. In the case of RRIRSRPPRLPRPRPRPHLMPRP, the “shrunken log2 fold change” value is reported as -0.0307. With RRIRSRPPRLPRPRPRPHLVPRP the “shrunken log2 fold change” value was -0.118. RRIRSRPPRLPRPRPRPHMDPRP was tested, and the “shrunken log2 fold change” value was -0.427. For RRIRSRPPRLPRPRPRPHPGPRP, the “shrunken log2 fold change” value was 0.00228. In the case of RRIRSRPPRLPRPRPRPHQLPRP, the “shrunken log2 fold change” value is reported as -0.201. RRIRSRPPRLPRPRPRPHQRPRP was tested, and the “shrunken log2 fold change” value was -0.249. RRIRSRPPRLPRPRPRPHSEPRP was tested, and the “shrunken log2 fold change” value was -0.0351. With RRIRSRPPRLPRPRPRPHTKPRP the “shrunken log2 fold change” value was 0.0141. In the case of RRIRSRPPRLPRPRPRPHTWPRP, the “shrunken log2 fold change” value is reported as -0.0472. With RRIRSRPPRLPRPRPRPHWTPRP the “shrunken log2 fold change” value was -0.0566. RRIRSRPPRLPRPRPRPIAEPRP was tested, and the “shrunken log2 fold change” value was -0.0272. RRIRSRPPRLPRPRPRPIAQPRP was tested, and the “shrunken log2 fold change” value was -0.0267. With RRIRSRPPRLPRPRPRPIDYPRP the “shrunken log2 fold change” value was -0.0581. RRIRSRPPRLPRPRPRPIELPRP was tested, and the “shrunken log2 fold change” value was -0.122. For RRIRSRPPRLPRPRPRPIFFPRP, the “shrunken log2 fold change” value was 0.124. For RRIRSRPPRLPRPRPRPIFKPRP, the “shrunken log2 fold change” value was -0.186. With RRIRSRPPRLPRPRPRPIGFPRP the “shrunken log2 fold change” value was -0.0486. With RRIRSRPPRLPRPRPRPIGIPRP the “shrunken log2 fold change” value was -0.67. For RRIRSRPPRLPRPRPRPIGSPRP, the “shrunken log2 fold change” value was 0.136. With RRIRSRPPRLPRPRPRPIHDPRP the “shrunken log2 fold change” value was -0.128. For RRIRSRPPRLPRPRPRPIHVPRP, the “shrunken log2 fold change” value was -0.154. With RRIRSRPPRLPRPRPRPIILPRP the “shrunken log2 fold change” value was -0.617. With RRIRSRPPRLPRPRPRPIISPRP the “shrunken log2 fold change” value was -0.472. For RRIRSRPPRLPRPRPRPIKFPRP, the “shrunken log2 fold change” value was -0.0229. RRIRSRPPRLPRPRPRPIKNPRP was tested, and the “shrunken log2 fold change” value was -0.399. RRIRSRPPRLPRPRPRPILGPRP was tested, and the “shrunken log2 fold change” value was -0.016. With RRIRSRPPRLPRPRPRPILQPRP the “shrunken log2 fold change” value was 0.0824. With RRIRSRPPRLPRPRPRPILTPRP the “shrunken log2 fold change” value was -0.125. RRIRSRPPRLPRPRPRPIMEPRP was tested, and the “shrunken log2 fold change” value was -0.182. With RRIRSRPPRLPRPRPRPINFPRP the “shrunken log2 fold change” value was -0.168. With RRIRSRPPRLPRPRPRPINMPRP the “shrunken log2 fold change” value was -0.928. For RRIRSRPPRLPRPRPRPINWPRP, the “shrunken log2 fold change” value was -0.161. In the case of RRIRSRPPRLPRPRPRPIPAPRP, the “shrunken log2 fold change” value is reported as -0.286. In the case of RRIRSRPPRLPRPRPRPIQQPRP, the “shrunken log2 fold change” value is reported as -0.0226. For RRIRSRPPRLPRPRPRPIRGPRP, the “shrunken log2 fold change” value was -0.0109. In the case of RRIRSRPPRLPRPRPRPIRYPRP, the “shrunken log2 fold change” value is reported as 0.31. RRIRSRPPRLPRPRPRPISIPRP was tested, and the “shrunken log2 fold change” value was 0.0336. In the case of RRIRSRPPRLPRPRPRPITKPRP, the “shrunken log2 fold change” value is reported as -0.083. With RRIRSRPPRLPRPRPRPIVNPRP the “shrunken log2 fold change” value was -0.259. RRIRSRPPRLPRPRPRPIWCPRP was tested, and the “shrunken log2 fold change” value was -0.288. For RRIRSRPPRLPRPRPRPIYWPRP, the “shrunken log2 fold change” value was -0.0771. RRIRSRPPRLPRPRPRPKAIPRP was tested, and the “shrunken log2 fold change” value was 0.119. RRIRSRPPRLPRPRPRPKAPPRP was tested, and the “shrunken log2 fold change” value was 0.184. RRIRSRPPRLPRPRPRPKAVPRP was tested, and the “shrunken log2 fold change” value was 0.255. With RRIRSRPPRLPRPRPRPKCKPRP the “shrunken log2 fold change” value was -0.0132. For RRIRSRPPRLPRPRPRPKCTPRP, the “shrunken log2 fold change” value was -0.0418. In the case of RRIRSRPPRLPRPRPRPKCWPRP, the “shrunken log2 fold change” value is reported as 0.359. With RRIRSRPPRLPRPRPRPKDFPRP the “shrunken log2 fold change” value was 0.0212. With RRIRSRPPRLPRPRPRPKDKPRP the “shrunken log2 fold change” value was -0.117. For RRIRSRPPRLPRPRPRPKEQPRP, the “shrunken log2 fold change” value was -0.0517. RRIRSRPPRLPRPRPRPKEWPRP was tested, and the “shrunken log2 fold change” value was -0.0193. In the case of RRIRSRPPRLPRPRPRPKFDPRP, the “shrunken log2 fold change” value is reported as -0.081. In the case of RRIRSRPPRLPRPRPRPKGEPRP, the “shrunken log2 fold change” value is reported as 0.379.
